Data set [1] deals with N,N′-diacetyl-Lys-D-Ala-D-Ala.
The target in data set [2] is Human serum albumin (human) (UniProt P02768). Briefly: calculated from ITC Ka; antibiotic 250 µM, HSA 6x10^-4 M assumed.
Data set [3] has the same target. Briefly: calculated from ITC Ka; antibiotic 10 µM, HSA 6x10^-4 M assumed.
Data set [4] deals with Human α-glycoprotein (human) (UniProt P02763). Briefly: calculated from ITC Ka; antibiotic 165 µM, α-glycoprotein 1.5x10^-5 M assumed.
Data set [5] addresses N,N′-diacetyl-Lys-D-Ala-D-Ala. The source holds these as a separate data set.
Data set [6] has as its target Human serum albumin (human) (UniProt P02768). The experiment in a line: calculated from ITC Ka; antibiotic 165 µM, HSA 6x10^-4 M assumed.
Data set [7] deals with Human α-glycoprotein (human) (UniProt P02763). Briefly: calculated from ITC Ka; antibiotic 100 µM, α-glycoprotein 1.5x10^-5 M assumed.
Data set [8] has as its target N,N′-diacetyl-Lys-D-Ala-D-Ala. The experiment in a line: ITC, 25 C, HSA 104 µM present. For orientation: In ITC the heat of successive injections is recorded.
Data set [9] deals with N,N′-diacetyl-Lys-D-Ala-D-Ala. The experiment in a line: ITC, 10 C, no HSA, average.
For data set [10], the target named is N,N′-diacetyl-Lys-D-Ala-D-Ala. The experiment in a line: ITC, 25 C, HSA 430 µM present.
The target in data set [11] is Human α-glycoprotein (human) (UniProt P02763). Briefly: calculated from ITC Ka; antibiotic 500 µM, α-glycoprotein 1.5x10^-5 M assumed.
Data set [12] has the same target. Briefly: ITC, 25 C, single-site model.
Data set [13] has as its target Human serum albumin (human) (UniProt P02768). The experiment in a line: ITC, 25 C, single-site model.
The target of data set [14] is Bovine albumin (bovine) (UniProt P02769). Briefly: ITC, 25 C, single-site model.
Data set [15] has as its target Dog albumin (dog) (UniProt P49822). Briefly: ITC, 25 C, single-site model.
For data set [16], the target named is Rat albumin (rat) (UniProt P02770). Briefly: ITC, 25 C, single-site model.
The target of data set [17] is N,N′-diacetyl-Lys-D-Ala-D-Ala. Briefly: ITC, 37 C, no HSA, average.
Data set [18] deals with N,N′-diacetyl-Lys-D-Ala-D-Ala. The experiment in a line: ITC, 37 C, HSA 516 µM present.
The target of data set [19] is Human α-glycoprotein (human) (UniProt P02763). Briefly: ITC, 37 C, single-site model.
Data set [20] concerns the target Human serum albumin (human) (UniProt P02768). The experiment in a line: ITC, 37 C, single-site model.
The target in data set [21] is Dog albumin (dog) (UniProt P49822). The experiment in a line: ITC, 37 C, single-site model.
Data set [22] has as its target Rat albumin (rat) (UniProt P02770). Briefly: ITC, 37 C, single-site model.
The target in data set [23] is N,N′-diacetyl-Lys-D-Ala-D-Ala. The experiment in a line: ITC, 25 C, HSA 34.2 µM present.
The target in data set [24] is Human serum albumin (human) (UniProt P02768). Briefly: calculated from ITC Ka; antibiotic 100 µM, HSA 6x10^-4 M assumed.
Data set [25] deals with N,N′-diacetyl-Lys-D-Ala-D-Ala. The experiment in a line: ITC, 10 C, HSA 0 µM.
The target of data set [26] is Human serum albumin (human) (UniProt P02768). The experiment in a line: calculated from ITC Ka; antibiotic 500 µM, HSA 6x10^-4 M assumed.
Data set [27] has the same target. The experiment in a line: calculated from ITC Ka; antibiotic 1 µM, HSA 6x10^-4 M assumed.
For data set [28], the target named is Human α-glycoprotein (human) (UniProt P02763). The experiment in a line: calculated from ITC Ka; antibiotic 10 µM, α-glycoprotein 1.5x10^-5 M assumed.
In data set [29] the target is N,N′-diacetyl-Lys-D-Ala-D-Ala. Briefly: ITC, preliminary experiments, no serum proteins.
Data set [30] concerns the target N,N′-diacetyl-Lys-D-Ala-D-Ala. Briefly: ITC, 37 C, HSA 0 µM.
The target in data set [31] is Human α-glycoprotein (human) (UniProt P02763). Briefly: calculated from ITC Ka; antibiotic 250 µM, α-glycoprotein 1.5x10^-5 M assumed.
For data set [32] the target is unchanged. Briefly: calculated from ITC Ka; antibiotic 1 µM, α-glycoprotein 1.5x10^-5 M assumed.
The target of data set [33] is N,N′-diacetyl-Lys-D-Ala-D-Ala. This is another data set of the same source.
Data set [34] concerns the target N,N′-diacetyl-Lys-D-Ala-D-Ala. Briefly: ITC, 25 C, no HSA, average.
Data set [35] has as its target N,N′-diacetyl-Lys-D-Ala-D-Ala. This is another data set of the same source.
The target in data set [36] is N,N′-diacetyl-Lys-D-Ala-D-Ala. Briefly: ITC, 25 C, apparent Kdiss plateau at high HSA.
Data set [37] deals with N,N′-diacetyl-Lys-D-Ala-D-Ala. The experiment in a line: ITC, 25 C, HSA 288 µM present.
The target of data set [38] is human albumin (Homo sapiens, UniProt P02768). Briefly: Protein binding by isothermal titration microcalorimetry.
Method: (§1) Integrated heat effects, after correction for heats of dilution, were analyzed by non-linear regression using a simple single-site binding model with the standard Microcal ORIGIN software package. Raw data (μcal/sec) for each injection were integrated to give the total heat effect per addition, then divided by amount of injectant to give kcal/mole of injectant. The same integration was applied for control dilution effects, and this was subtracted from the actual titration data. This provided a differential of the binding curve in which the extent of binding is proportional to the total heat liberated (or absorbed). This was then analyzed by non-linear regression methods in terms of various standard binding models.
For data set [39], the system named is human α-glycoprotein. The data set is described as above. To be noted: α-glycoprotein […]10^−5M.
Method: as §1
The target of data set [40] is N,N′-diacetyl-Lys-D-Ala-D-Ala. The experiment in a line: ITC, 25 C, HSA 513 µM present.
Data set [41] has as its target N,N′-diacetyl-Lys-D-Ala-D-Ala. Briefly: ITC, 25 C, HSA 0 µM.
Data set [42] has as its target N,N′-diacetyl-Lys-D-Ala-D-Ala. The experiment in a line: ITC, 25 C, asymptote of the non-competitive binding model.

The values below come from patent publication US20050004011A1, “Compositions and methods for treating bacterial infections with protein-dalbavancin complexes” (priority 2002, published 2005).

Where “and” joins values, the source holds several entries; their conditions need not be identical. Identical values can stand only once. Like-named read-outs stand apart in the source and are kept apart here.

Human α-glycoprotein (human), sequence (P02763 19-201): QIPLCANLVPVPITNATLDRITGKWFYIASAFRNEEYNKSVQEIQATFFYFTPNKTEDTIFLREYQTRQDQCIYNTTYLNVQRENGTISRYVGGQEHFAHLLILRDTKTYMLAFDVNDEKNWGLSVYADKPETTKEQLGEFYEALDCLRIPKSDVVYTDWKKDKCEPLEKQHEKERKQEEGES
Dog albumin (dog), sequence (P49822 25-608 limits assumed): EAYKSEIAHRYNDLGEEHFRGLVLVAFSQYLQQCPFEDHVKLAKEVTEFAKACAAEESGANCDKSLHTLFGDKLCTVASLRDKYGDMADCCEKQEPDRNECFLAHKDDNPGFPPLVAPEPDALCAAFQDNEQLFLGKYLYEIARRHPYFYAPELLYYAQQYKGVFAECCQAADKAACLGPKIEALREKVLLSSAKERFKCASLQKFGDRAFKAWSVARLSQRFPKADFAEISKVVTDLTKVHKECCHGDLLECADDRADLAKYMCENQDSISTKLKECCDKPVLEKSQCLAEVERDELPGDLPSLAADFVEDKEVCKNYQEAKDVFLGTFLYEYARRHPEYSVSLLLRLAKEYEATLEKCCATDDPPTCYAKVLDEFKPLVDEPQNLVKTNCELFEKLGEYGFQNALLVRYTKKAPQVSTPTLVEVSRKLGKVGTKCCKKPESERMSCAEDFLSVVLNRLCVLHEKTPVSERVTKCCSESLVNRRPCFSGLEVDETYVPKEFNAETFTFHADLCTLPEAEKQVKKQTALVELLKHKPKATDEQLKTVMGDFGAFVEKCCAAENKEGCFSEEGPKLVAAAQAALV
Rat albumin (rat), sequence (P02770 25-608 limits assumed): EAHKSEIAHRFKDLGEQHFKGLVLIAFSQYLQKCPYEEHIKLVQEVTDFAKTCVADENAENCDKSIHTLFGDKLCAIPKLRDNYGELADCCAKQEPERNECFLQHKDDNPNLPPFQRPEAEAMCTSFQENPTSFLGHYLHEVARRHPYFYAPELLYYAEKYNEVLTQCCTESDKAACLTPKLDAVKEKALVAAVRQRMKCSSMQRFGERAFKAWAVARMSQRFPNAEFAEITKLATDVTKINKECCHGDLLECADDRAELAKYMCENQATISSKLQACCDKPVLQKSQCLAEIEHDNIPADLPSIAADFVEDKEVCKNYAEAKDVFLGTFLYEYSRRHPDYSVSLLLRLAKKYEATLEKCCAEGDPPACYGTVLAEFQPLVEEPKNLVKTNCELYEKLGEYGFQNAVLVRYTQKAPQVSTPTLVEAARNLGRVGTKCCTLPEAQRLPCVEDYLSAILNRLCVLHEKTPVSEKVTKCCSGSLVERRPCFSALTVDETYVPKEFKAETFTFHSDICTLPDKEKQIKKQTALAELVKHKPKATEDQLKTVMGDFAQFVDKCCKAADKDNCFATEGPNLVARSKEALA
Bovine albumin (bovine), sequence (P02769 25-607 limits assumed): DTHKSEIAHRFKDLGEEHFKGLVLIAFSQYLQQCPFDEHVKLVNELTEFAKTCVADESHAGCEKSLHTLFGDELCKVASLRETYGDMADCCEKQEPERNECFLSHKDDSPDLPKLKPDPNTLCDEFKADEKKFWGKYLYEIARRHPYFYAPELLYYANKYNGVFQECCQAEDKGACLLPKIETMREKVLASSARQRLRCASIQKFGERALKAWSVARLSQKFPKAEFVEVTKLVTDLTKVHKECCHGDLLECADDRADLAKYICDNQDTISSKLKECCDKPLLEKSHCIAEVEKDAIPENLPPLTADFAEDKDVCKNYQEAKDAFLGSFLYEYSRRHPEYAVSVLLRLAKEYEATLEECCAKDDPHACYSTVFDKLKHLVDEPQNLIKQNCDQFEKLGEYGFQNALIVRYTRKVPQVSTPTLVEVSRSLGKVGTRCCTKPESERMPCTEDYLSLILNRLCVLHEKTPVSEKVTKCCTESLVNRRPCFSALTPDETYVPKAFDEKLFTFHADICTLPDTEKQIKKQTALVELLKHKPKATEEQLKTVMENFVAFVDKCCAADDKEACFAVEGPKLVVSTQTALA

On to Dalbavancin (peptide), for which the Ka amounted to 12500 M⁻¹ in data set [1]; 21800 M⁻¹ in [5]; 34900 M⁻¹ in data set [8]; 28400 M⁻¹ in [10]; 184000 M⁻¹ in [12]; 135000 M⁻¹ in data set [13]. For the same substance, the Ka amounted to 138000 M⁻¹ in [14]; 62000 M⁻¹ in data set [15]; 310000 M⁻¹ in [16]; 9570 M⁻¹ in data set [18]; 480000 M⁻¹ in [19]; 133000 M⁻¹ in [20]. Further, the Ka in data set [21] was 50000 M⁻¹; in data set [22], 280000 M⁻¹; in data set [23], 35000 M⁻¹; in data set [30] it was 130000 M⁻¹ and 110000 M⁻¹; in data set [33] it was 27600 M⁻¹; in data set [35], 118000 M⁻¹. In data set [37], this substance yielded a Ka of 31000 M⁻¹. Moreover, the Kd in [1] was 80 µM; in data set [5], 45.9 µM; in data set [8] it was 28.7 µM; in data set [9] it was 1.4 µM; in data set [10] it was 35.2 µM; in data set [17] it was 8.4 µM. In addition, the Kd in data set [18] is 105 µM; in data set [23] it was 28.6 µM; in [29] it was 1 to 10 µM; in [30], 7.69 µM and 9.09 µM; in data set [33] it was 36.2 µM; in data set [34], 3.1 µM. Also, the Kd in data set [35] was determined as 8.47 µM; in data set [36] it was 35 µM; in [37], 32.3 µM. Further, the ΔH is -98.6 kcal/mol in data set [1]; -15 kcal/mol in data set [5]; -18.6 kcal/mol in data set [8]; -19.5 kcal/mol in data set [10]; -26.6 kcal/mol in [18]; -20 kcal/mol in data set [23]. The ΔH in data set [25] was -10.3 kcal/mol (2×) and -8.95 kcal/mol; in data set [30], -12.5 kcal/mol and -17.4 kcal/mol; in [33] it was -16.9 kcal/mol; in [35] it was -27.8 kcal/mol and -26.4 kcal/mol; in [37] it was -21.1 kcal/mol. Moreover, the ΔS in [1] is -299 eu; in data set [5], -30.4 eu; in data set [8], -41.7 eu; in data set [10], -44.9 eu; in data set [18], -67.6 eu; in [23], -46.2 eu. The ΔS was -9.6 eu and -4.3 eu and -9.9 eu in data set [25]; -16.8 eu and -33.2 eu in [30]; -36.5 eu in data set [33]; -70.1 eu and -65.5 eu in data set [35]; -50 eu in data set [37]. Further, the calculated percent bound was 98.5% in [2]; 98.8% in [3]; 16.9% in [4]; 98.6% in data set [6]; 26.2% in [7]; 5.9% in data set [11]. Further, the calculated percent bound was 98.7% in [24]; 98% in data set [26]; 98.8% in data set [27]; 68.2% in data set [28]; 11.4% in data set [31]; 73% in [32].
For the substance Teicoplanin (peptide), the calculated percent bound in [3] was 98.3%; in data set [7], 6%; in data set [24] it was 98%; in data set [27], 98.3%; in [28] it was 9.1%; in data set [32] it was 9.6%. Moreover, the Ka in [12] was 7000 M⁻¹; in data set [13] it was 96000 M⁻¹.
For the substance Teicoplanin [reference compound], the “binding stoichiometry modeling (drug:protein)” value in data set [38] is 1:1 binding. The Calculated percent binding in data set [38] (antibiotic 100 μM, human serum albumin 6×10^−4 M) was 98.0%; in data set [39] (antibiotic 1 μM), 9.6%; in data set [39] (antibiotic 10 μM), 9.1%; in data set [39] (antibiotic 100 μM), 6.0%.
As to “Vancomycin hydrochloride (Sigma V-2002, fw 1485.7) (peptide)”, in data set [40], the Ka turned out to be 290000 M⁻¹, the Kd worked out at 3.45 µM, the ΔH was -10.1 kcal/mol and the ΔS is -8.8 eu. Moreover, in data set [25], the Ka came to 690000 M⁻¹, the Kd stood at 1.45 µM, the ΔH is -9.49 kcal/mol and the ΔS is -6.8 eu. Also, in data set [41], the Ka was 340000 M⁻¹ and 360000 M⁻¹; the Kd was 2.94 µM and 2.78 µM; the ΔH is -10.7 kcal/mol and -12.9 kcal/mol; the ΔS is -10.6 eu and -17.8 eu.
For “dalbavancin-HSA complex (from UniProt P02768 25-609)”, the Kd in data set [42] came out at 35 µM.
